One assay addresses T1, Human CLEC12A-His (human, UniProt Q5QGZ9 65-265).
T1 construct: Recombinant soluble protein made in house (Dragonfly Tx); The hCLEC12A spot of the HuProt array is written under this molecule as well; also called hCLEC12A-His; hCLEC12A; not shown: His tag
T1 sequence: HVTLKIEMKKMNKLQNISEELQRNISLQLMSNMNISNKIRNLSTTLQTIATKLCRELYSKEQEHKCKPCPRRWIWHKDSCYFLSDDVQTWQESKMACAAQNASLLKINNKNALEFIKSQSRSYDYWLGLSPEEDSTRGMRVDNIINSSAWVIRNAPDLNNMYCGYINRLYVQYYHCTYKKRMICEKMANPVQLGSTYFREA
The experiment in a line: SPR Biacore 8K 37 C; TriNKET captured on anti-hFc chip, hCLEC12A-His as analyte; 1:1 fit; after 4 wks 40 C in HST pH 6.0, n=2. In general terms: SPR reads the build-up and loss of mass on a sensor chip optically.

The target in another assay is T2, mFc-hNKG2D (human, UniProt P26718 73-216).
T2 construct: extracellular domain; Recombinant mFc-tagged NKG2D dimer, made in house; also called human NKG2D; not shown: mouse Fc tag
T2 sequence (looked up): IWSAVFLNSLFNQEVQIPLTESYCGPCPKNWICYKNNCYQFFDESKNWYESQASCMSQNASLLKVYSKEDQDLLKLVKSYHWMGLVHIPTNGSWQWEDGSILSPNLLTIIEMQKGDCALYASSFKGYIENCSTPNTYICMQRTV
The experiment in a line: SPR, 37 C, mFc-hNKG2D captured, kinetic fit.

For assay [1], the target named is T3, human CLEC12A on cells (HL60, PL21, Ba/F3-hCLEC12A) (human, UniProt Q5QGZ9 1-265).
T3 construct: Endogenous on the AML lines HL60 and PL21; brought into mouse Ba/F3 cells by retroviral transduction; The cell line stands under assay; also called CLL-1
T3 sequence: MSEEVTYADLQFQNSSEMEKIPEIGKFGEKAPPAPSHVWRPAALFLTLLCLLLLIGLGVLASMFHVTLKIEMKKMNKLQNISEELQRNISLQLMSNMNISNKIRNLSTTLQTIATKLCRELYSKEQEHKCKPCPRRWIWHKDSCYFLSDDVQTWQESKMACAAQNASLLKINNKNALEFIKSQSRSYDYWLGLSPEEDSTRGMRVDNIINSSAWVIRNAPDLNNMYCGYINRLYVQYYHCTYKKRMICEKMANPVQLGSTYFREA
The experiment in a line: flow cytometry, Ba/F3-hCLEC12A cells. Background: In flow cytometry, cells or beads pass a laser one at a time.

The target in assay [2] is T4, Human CLEC12A expressed on cells (Ba/F3-hCLEC12A, PL21, HL60) (human, UniProt Q5QGZ9 1-265).
T4 sequence: T3 sequence
The experiment in a line: cell-based or functional assay.

In assay [3] the target is T5, Human CD16a V158 (FcγRIIIa V158) (human, UniProt P08637 17-208, biotinylated).
T5 construct: Bought recombinant receptor; also called hCD16aV; hFcγRIIIa V158
T5 sequence (P08637 17-208 F176V limits assumed): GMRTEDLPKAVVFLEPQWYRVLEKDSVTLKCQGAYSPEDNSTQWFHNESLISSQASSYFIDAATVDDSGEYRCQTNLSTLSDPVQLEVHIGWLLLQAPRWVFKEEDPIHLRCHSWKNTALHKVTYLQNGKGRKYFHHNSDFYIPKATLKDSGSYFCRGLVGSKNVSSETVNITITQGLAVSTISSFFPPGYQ
Description: SPR; after pH 5.0, 40C, 2 wks.

Assay [4] deals with T6, recombinant human CD32b (human, UniProt P31994 46-217, limits assumed, biotinylated).
T6 construct: also called FcγRIIb
T6 sequence (looked up): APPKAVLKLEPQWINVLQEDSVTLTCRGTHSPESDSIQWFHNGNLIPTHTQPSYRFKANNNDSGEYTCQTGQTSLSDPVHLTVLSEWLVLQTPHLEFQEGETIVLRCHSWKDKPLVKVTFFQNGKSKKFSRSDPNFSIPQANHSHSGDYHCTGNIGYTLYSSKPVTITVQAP
The experiment in a line: SPR 25C, steady state.

For assay [5], the target named is T7, human CLEC12A expressed on cells (human, UniProt Q5QGZ9 1-265).
T7 construct: Transduced isogenic cells or endogenous expression on AML cells; also called RMA-hCLEC12A; Ba/F3-hCLEC12A
T7 sequence: T3 sequence
The experiment in a line: flow cytometry (gMFI) on CLEC12A+ PL-21 AML cells.

For assay [6], the target named is T8, recombinant cynomolgus CD16 (cynomolgus monkey, UniProt Q8SPW2 17-208, biotinylated).
T8 construct: also called cFcγRIII; cyno CD16
T8 sequence (Q8SPW2 17-208 limits assumed): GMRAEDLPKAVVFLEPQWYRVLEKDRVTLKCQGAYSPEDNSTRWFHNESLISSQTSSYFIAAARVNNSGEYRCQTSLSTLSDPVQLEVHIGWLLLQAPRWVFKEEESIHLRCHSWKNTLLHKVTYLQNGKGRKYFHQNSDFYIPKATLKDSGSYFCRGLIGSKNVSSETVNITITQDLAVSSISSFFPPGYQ
The experiment in a line: SPR, summary table.

The target of assay [7] is T9, recombinant human CD32a R131 (human, UniProt P12318 36-218, limits assumed, biotinylated).
T9 construct: also called FcγRIIa R131
T9 sequence (looked up): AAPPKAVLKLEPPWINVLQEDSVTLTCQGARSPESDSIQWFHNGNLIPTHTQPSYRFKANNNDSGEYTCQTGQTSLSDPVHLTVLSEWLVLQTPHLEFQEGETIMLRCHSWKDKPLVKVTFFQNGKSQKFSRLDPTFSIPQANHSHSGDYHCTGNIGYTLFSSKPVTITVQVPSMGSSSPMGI
The experiment in a line: SPR, summary table.

Assay [8] has as its target T10, recombinant human CD16a V158 (human, UniProt P08637 17-208, biotinylated).
T10 construct: also called FcγRIIIa V158; hCD16aV
Description: SPR, summary table.

Assay [9] addresses T11, recombinant cynomolgus CD64 (cynomolgus monkey, UniProt A0A2K5U901 33-309, Biotinylated for capture on the CAP chip; the biotin site is not stated.).
T11 construct: also called cFcγRI; cyno CD64; not shown: The vendor's biotinylation and purification tag, used for capture via biotin
Description: SPR, summary table.

The target in assay [10] is T12, recombinant human CD16a F158 (human, UniProt P08637 17-208).
T12 construct: also called FcγRIIIa F158
T12 sequence (P08637 17-208 limits assumed): as the sequence (P08637 17-208 F176V limits assumed) above, with V160F counted along it
The experiment in a line: SPR, summary table.

The target of the next assay is T13, recombinant human CD16b (human, UniProt O75015 17-200, limits assumed, biotinylated).
T13 construct: also called FcγRIIIb
T13 sequence (O75015 17-200 limits assumed): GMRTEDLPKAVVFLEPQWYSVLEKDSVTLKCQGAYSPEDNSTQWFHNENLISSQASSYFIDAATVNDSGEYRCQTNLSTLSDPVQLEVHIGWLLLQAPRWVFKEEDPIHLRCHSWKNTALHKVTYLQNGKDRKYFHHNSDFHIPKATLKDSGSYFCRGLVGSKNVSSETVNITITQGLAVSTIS
Description: SPR, summary table.

Assay [11] concerns the target T14, recombinant human CD32a H131 (human, UniProt P12318 36-218, limits assumed, biotinylated).
T14 construct: also called FcγRIIa H131
T14 sequence (looked up): T9 sequence (looked up) with R132H
The experiment in a line: SPR, summary table.

Assay [12] addresses T6, recombinant human CD32b. The experiment in a line: SPR, summary table.

Changes are numbered by the printed parent chain. Numbers in names are those of the source. Where “and” joins values, the source holds several entries; their conditions need not be identical. Equal entries are not always repeated.

T11 sequence (A0A2K5U901 entry or part of it limits assumed): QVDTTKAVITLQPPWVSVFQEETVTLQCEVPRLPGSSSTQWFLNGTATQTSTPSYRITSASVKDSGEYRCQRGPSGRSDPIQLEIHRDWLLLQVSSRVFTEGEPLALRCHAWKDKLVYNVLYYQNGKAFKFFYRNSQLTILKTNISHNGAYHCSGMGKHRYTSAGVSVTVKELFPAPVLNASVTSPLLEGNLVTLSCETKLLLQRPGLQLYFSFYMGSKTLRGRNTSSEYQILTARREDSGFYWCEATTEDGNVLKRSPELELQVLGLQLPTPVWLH
T10 sequence (P08637 17-208 F176V limits assumed): as the sequence (P08637 17-208 F176V limits assumed) above

B1: F3'-1602 TriNKET (bispecific antibody, human IgG1, kappa)
chain: QLQLQESGPGLVKPSETLSLTCTVSGFSLTNYGLHWIRQPPGKCLEWIGVIWSGGKTDYNPSLKSRVTISKDTSKNQFSLKLSSVQAADTAVYYCAKYDYDDSLDYWGQGTLVTVSSGGGGSGGGGSGGGGSGGGGSDIQMTQSPSSLSASVGDRVTITCHASQNINFWLSWYQQKPGKAPKLLIYEASNLHTGVPSRFSGSGSGTRFTLTISSLQPEDIATYYCQQSHSYPLTFGCGTKLEIKGSDKTHTCPPCPAPELLGGPSVFLFPPKPKDTLMISRTPEVTCVVVDVSHEDPEVKFNWYVDGVEVHNAKTKPREEQYNSTYRVVSVLTVLHQDWLNGKEYKCKVSNKALPAPIEKTISKAKGQPREPRVYTLPPCRDELTKNQVSLTCLVKGFYPSDIAVEWESNGQPENNYKTTPPVLVSDGSFTLYSKLTVDKSRWQQGNVFSCSVMHEALHNHYTQKSLSLSPG
heavy: EVQLVESGGGLVKPGGSLRLSCAASGFTFSSYSMNWVRQAPGKGLEWVSSISSSSSYIYYADSVKGRFTISRDNAKNSLYLQMNSLRAEDTAVYYCARGAPIGAAAGWFDPWGQGTLVTVSSASTKGPSVFPLAPSSKSTSGGTAALGCLVKDYFPEPVTVSWNSGALTSGVHTFPAVLQSSGLYSLSSVVTVPSSSLGTQTYICNVNHKPSNTKVDKKVEPKSCDKTHTCPPCPAPELLGGPSVFLFPPKPKDTLMISRTPEVTCVVVDVSHEDPEVKFNWYVDGVEVHNAKTKPREEQYNSTYRVVSVLTVLHQDWLNGKEYKCKVSNKALPAPIEKTISKAKGQPREPQVCTLPPSRDELTENQVSLTCLVKGFYPSDIAVEWESNGQPENNYKTTPPVLDSDGSFFLYSWLTVDKSRWQQGNVFSCSVMHEALHNHYTQKSLSLSPG
light: DIQMTQSPSSVSASVGDRVTITCRASQGISSWLAWYQQKPGKAPKLLIYAASSLQSGVPSRFSGSGSGTDFTLTISSLQPEDFATYYCQQGVSFPRTFGGGTKVEIKRTVAAPSVFIFPPSDEQLKSGTASVVCLLNNFYPREAKVQWKVDNALQSGNSQESVTEQDSKDSTYSLSSTLTLSKADYEKHKVYACEVTHQGLSSPVTKSFNRGEC
notes: Trispecific F3' format: CLEC12A scFv-Fc paired with NKG2D Fab-Fc; Stressed and control samples of the stability studies are the same molecule; also called AB0237
Turning to B1, in the assay with Human CLEC12A-His, binding was put at a Kd of 1.69 nM; the koff (commonly a measure of how fast the partners let go of each other) came to 0.00214 s⁻¹; the kon – broadly, a measure of how fast the partners come together – is 1.24e+06 M⁻¹ s⁻¹.

B2: AB0192 TriNKET (other)
chain: EVQLVESGGGVVQPGGSLRLSCAASGFTFNAFGMHWVRQAPGKCLEWVAFISSGSTSIYYANTVKGRFTISRDNSKNTLYLQMNSLRAEDTAVYYCARDGYPTGGAMDYWGQGTSVTVSSGGGGSGGGGSGGGGSGGGGSDIQMTQSPSSLSASVGDRVTITCKASQDIYNYLSWFQQKPGKAPKPLIYRANILVSGVPSRFSGSGSGQDYTFTISSLQPEDIATYYCLQFDAFPFTFGCGTKLEIKGSDKTHTCPPCPAPELLGGPSVFLFPPKPKDTLMISRTPEVTCVVVDVSHEDPEVKFNWYVDGVEVHNAKTKPREEQYNSTYRVVSVLTVLHQDWLNGKEYKCKVSNKALPAPIEKTISKAKGQPREPRVYTLPPCRDELTKNQVSLTCLVKGFYPSDIAVEWESNGQPENNYKTTPPVLVSDGSFTLYSKLTVDKSRWQQGNVFSCSVMHEALHNHYTQKSLSLSPG
heavy: B1 heavy
light: B1 light
notes: the condition stands under assay; also called AB0192 Lot AB0192-005
As for B2, in the assay with mFc-hNKG2D, the dissociation constant Kd (usually the constant that tells how readily two partners part at equilibrium) is 770 nM and 778 nM and 790 nM. Besides, in [1], the half-maximal effective concentration (EC50) (usually the concentration at which the effect is half-maximal) worked out at 1.33 nM and the “FOB (fold over background)” value is 325 fold.

B3: AB0089 TriNKET (bispecific antibody, human IgG1, kappa)
chain: B1 chain with S53V, K56A, K71V, Y98G, D101G, S103T, R207D, I220F
heavy: B1 heavy
light: B1 light
notes: F3' format heterodimer of three chains; human IgG1 Fc with EW-RVT and Y349C/S354C mutations; also called AB0089 Lot AB0089-002; CLEC12A TriNKET AB0089
Consider B3, for which, in assay [2], the “% Max, ADCP activity of M0 macrophages against PL21 cells” value was found to be 15% and the “EC50, ADCP activity of M0 macrophages against PL21 cells” value was 0.03 nM. In addition, in assay [3], the Kd came out at 383 nM, the off-rate (koff) came to 0.0289 s⁻¹ and the kon was 75400 M⁻¹ s⁻¹.

B4: F3'-1602 TriNKET (other)
chain: B1 chain
heavy: B1 heavy
light: B1 light
notes: CLEC12A scFv-Fc, NKG2D A49MI Fab-Fc, human IgG1 Fc; also called AB0237
Take B4: the Kd is 7200 nM and 6100 nM and 6900 nM with recombinant human CD32b [4]; 306 nM in assay [6]; 1400 nM in assay [7]; 238 nM in [8]; 2 nM in assay [9]; 1110 nM in assay [10]. Further, the Kd with recombinant human CD16b was found to be 7500 nM; in assay [11] it was 900 nM; with recombinant human CD32b [12] it was 6600 nM. This molecule registered an EC50 in [5] of 1.2 nM.

Values taken from patent US20220119534A1 (DRAGONFLY THERAPEUTICS, published 2022).
